# Test: yeast display, Sf9 membrane polyspecificity reagent, FACS + sequencing; frameworks hold sequencing errors
# How it was run: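 Using colony PCR, genes from sorted yeast display clones were amplified, then sequenced on MiSeq at 2 × 250 and filtered by CDR length. The clones had been stained with 10% biotinylated, detergent-solubilized Sf9 membrane reagent for 1 hour at 4 °C and sorted by FACS into low and high (top ~1%) gates on anti-HA and streptavidin fluorescence. Polyreactivity labels come from the gate of origin.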
row,Sequence,polyreactivity (PSR sort gate)
1,QVQLVESGGGLVQAGGSLRLSCAASGFIFRWYAMGWYRPAPGKERELVASINWSGSRTNYADSVKGRFTISRDNAKNTVYLQMNSLKPEDTAVYYCNAYGGLQYDYWGQGTQVTVSS,high polyreactivity
2,QVQLVESGGGLVQAGGSLRLSCAASGLTFYYYDMGWYRQAPGKERELVAAITTDGSTNYADSVKGRFTISRDNAKNTVYLQMNSLKPEDTAVYYCAADKYYRYNYWGQGTQVTVSS,high polyreactivity
3,QVQLVESGGGLVQAGGSLRLSCAASGSTFTGYTKGWYRQAPGKERELVAAITYRGGSTYYADSVKGRFTISRDNAKNTVYLQMNSLKPEDTAVYYCAAVPEYYEYSPYDYWGQGTQVTVSS,low polyreactivity
4,QVQLVESGGGLVQAGGSLRLSCAASGFTLYFYVMGWYRQAPGKERELVAAITSGGSTYYADSVKGRFTISRDNAKNTVYLQMNSLKPEDTAVYYCAARRSPSRRYLGNYWGQGTQVTVSS,high polyreactivity
5,QVQLVESGGGLVQAGGSLRLSCAASGRIFKSYAMGWYRQAPGKERELVASIRTGGTTNYADSVNGRFTISRDNAKNTVYLQMNSLKPEDTAVYDCNRGYYSYYGRYYYWGQGTQVTVSS,high polyreactivity
6,QVQLVESGGGLVQAGGSLRLSCSAYGYTFSHYAMGWYRQAPGKERELVAGITWSGGSTYYADSVKGRYTISRDNAKNTVYLQMNSLKPEDTSVYYCAAKYYWYYSYSGIPLFDYWGQGTQVTVSS,low polyreactivity
7,QVQLVESGGGLVQAGGSLLLSCAASGSTYKYAMGWYRQAPGKERELVAVISSGGSTDDADSVKGRFTISRDNAKNTVYLQMNSLKPEDTAVYYCAADSGFVSIGSYYWGLGTQVTVSS,low polyreactivity
8,QVQLVESGGRLDQARGSLRLSCAASGYNFQPYAMGWYRLAPGKERDLVAAISWRGGSTYYADSVKGRFTISRDNAKNTVYLQMTSLKPEDTAVYYCAKDYYYGLEHYGYWGQGTQVTVSS,low polyreactivity
9,QVQLVESGGGLVQAGGRLRLSCAASGSTLEINGMGWYRQAPGKEREFVADISIGGDTNYADSVKGRFTISRDNAKNTEMNSLKPEDTAVYYCNTDYFGSLVVVIFDYWGQGTQVSVSS,low polyreactivity
10,QVQLVESGGGLVPAGGSLRLTCAASGSTFGDYAMGWYRQAPGKERELVAAINFSDGSTYYADSVKGRFTISRDNAKNTVYLQMNSLKPEDTAVYYCAAYTYYDGVYGFDYWGQGTQVTVSS,low polyreactivity
11,QVQLVESGGGLVQAGGSLRLSCAASGRTFSRYAMGWYRPAPGKERELVAAISSSGGSTYYADSVKGRFTISRDHAKNTVYLQMNSLKPEDTAVYYCAKYFIRDNRYDYWGQGTQVTVSS,high polyreactivity
12,QVQLVESGGGLVQAGGSLRLSCAASGSTFWDYAMGWYRQAHGKERELVAAITDSGGSTYYADSVKGRFTISRDNAKNTVYLQMNSLKPEDTAVYYCAAEAYIWWAWEYEYWGQGPQVTVSS,high polyreactivity
13,QVQLVESGGGLVQAGGSLRLTCAASGYAMGWYRQAPGKERELVAAISWSGDITYADSVKGRFTISRDNAKNTVYLQMNRLKPEDTAVYSCNADRYTGRDGEQSLDYWGQGTQVTVSS,low polyreactivity
14,QVQLVESGGGLVQAGGSLRLSCAASGSIFYGNAMGWYRQAPGKERELVAAISSSGGSTYYADSVKGRFTISRDNAKNTVYLQMISLKPEDTAVYYCAADSTYYNSYDYWGQGTQVTVSS,low polyreactivity
15,QVQLVESGGGLVQAGGSLRLSCAASGFIFSSIAMGWYRPAPGKEREFVAAITSGGITYYADSLKGRFTISRDNAKNTVYLQMNSLKPEDTAVYYCAAVLSYQTPKYYRWRYGYWGQGTQVTVSS,low polyreactivity
16,QVQLVESGAGLVQAGGSLRLSCAASGRTFRINTMGWSIQAPGKERELVATITGSGGSTYYADSVKGRFTISRDNAKNTVYLQMNSLKPEDTAVYYCAAVGDQNEYDYWGQGTQVTVSS,low polyreactivity
17,QVQLVESGGGLVQAGGSLRLSCAASGSIFPYYAMGWYRQAPGKERELVAAISSGDITDYADSVKGRFTISRDNAKNTVYLQMNSLKPEDTAVYYCAAVYDLGYYGPIWAIVLDDYWGQGTQVTVSS,low polyreactivity
18,QVQLVESGGGLVQSGGSLRLSCAASGRIFVYYAMGWYIQAPGKEMELVAAIDGSDGTTYYADSVKGRFTISRDNAKNTVYLQMNSLKPEDTSVYYCAKDNSLPDYDYWGQGTQVTVSS,low polyreactivity
19,QVQLVESGGGLVQAGGSLRLSCAASGSTLYHNAMGWYRQAPGKERELVAIINYSGDNTYYADSVKGRFTISRDNAKNTVFLQMNSLKPEDTAVYYCAADLYERGRQAWQYDYWGQGTQVTVSS,low polyreactivity
20,QVQLVESGGGLVQAGGSLRLSCAASGSIFTPYTMVWYRQAPGKERELVAAIRPNSGSTYYADSVKGRFTISRDNAKNTVYLQLNSLKPEDTAVYYCNAQCYGPGGGYFWSYDYWGQGTQVTVSS,low polyreactivity
21,QVHLVESGGGLVQAGGSLRLSCAASGSNFRSYAMGWYRQAPWKERELDAAISSSGGRTYYADSVKGRFTISRDNAKNTVYLQMNSVKPEDNAVYYCAAYRGGGYKYDYWGQGTQVTVSS,high polyreactivity
22,QVQLVESGGGLVQAGGSLRLSCAASGIIFWSYVMGWYRQAPGKERELVAAITFSGGSTYYADSVKGRFTISRDNAKNTVYLQMNSLKPEDTAVYYCAARYKLVRRYDYWGQGTQVTVSS,low polyreactivity

row,Sequence,polyreactivity (PSR sort gate)
1,QVQLEESGGGLVQAGGRLRLSSAASGRTFMPNGMGWYRQAPGKERELVAAISWRGGSTYYADSVKGRFTISRDNAKNTVYLQMNSLKPEDTAVYYCNARVSRQYDYWGQGTEVTVSS,low polyreactivity
2,QVQLVESGGGLVQAGGSLRLSCAASGFIFLYNAMGWYRQAPGKERELVATITSGGSTNYADSVKGRFTISRDNAKNTVYLQMNSLKPEDTAVYYCAVRRKAYYSYYYHDPYYYWGQGTQVTVSS,low polyreactivity
3,QVQLLESGGGLVQAGGSLRLSCAASGYIFGWYTMGWYRQAPGKERELVAAISYSGGDTYYADSVKGRFTNTRDNAKNTVYLQMNSLKPEDTAVYYCAAVDPASPLGEYWGQGTQVTVSS,low polyreactivity
4,QVQLVESGGGLVHAGGSLRLSCAASGLIFKTYTMGWYRQAPGKEREFVAAITTSGGSTYYADSVKGRFTISRDNAKNTDYVEMNRLKPEETAVYFCAAEGYTDATQSLFYYWGQGTQVTVSS,high polyreactivity
5,QVQLVESGGGLVQAGGSLRLSCAASGSIFYENVMGWYRQAPGKERELVAGISRSGGRTYYADSVKGRFTISRDNAKNTVYFQMNSLKPEDTAVYYCAALTPRNRYRKFDYWGQGTQVTVSS,high polyreactivity
6,QVQLVESGGGLVQAGGSLRLSCAASGNIFDIYAMGWYRQATGKERELVAAICSGGSTYYADSVKGRFTISRDNAKNTVYLQMISLKTEDTAVDYCAESRVGYYRYEYWGQGTQVTVSS,low polyreactivity
7,QVQLVESGGGLVQAGGSLRLSCAASGSIFALYAMGWYRQAPGQERELVAAISYRGGRTYYADSVKGRFTISRDNAKNTVYLQMNSLKPEDTAVYYCNARAFPFGTGVQGFGFGYWGQGTQVTVSS,low polyreactivity
8,QVQLVESGGGLVQAGGSLRLSCAASGSIFLYYAMGWYRQAPGKERELVAAITGGGGTNYADSVKGRFTISRDNAKNTVYLQMNSLKPEDTAVYYCAADTSGQFPYSYYNYDYDYWGQGTQVTVSS,low polyreactivity
9,QVQLVETGGGLVQAGCSLRLSCASSGFIFVRNAMGRYRQAPGIERELVATINSGGGTNYADSVKWRFTISRDNAKNSVYFQMNSLKPDDTAVYYCAAGQTSPERYGLGYWGQGSQVTVSS,low polyreactivity
10,QVQLVESGGGLVQAGGSLRLSCAASGFTIRYYAMGWYRQAPGKERELVAAISSSGGSTYYADSVKGRFTISRDNAKNTVYLQMNSLKTEDTAVYYCAAYYHGRMDYWGQGTQVTVSS,high polyreactivity
11,QVQLVESGGGLVQAGGSLRLSCAASGSILYIYAMGWYRQAPGKVRELVAAITGSGGTTNYADSVKGRFTISRDNAKNTVYLQMNSLKPEDTAVYYCNIGSYYSCYDFWGQGTQVTVSS,low polyreactivity
12,QVQLVESGGGLVQAGGSLRLSCAASGRIFNRNAMGWYRQAPGKERELVATISFNDGSTYYADSVKGRFRISRDIAKNTVYLQMNSLKPEDTAVYYCAKEGYVFEYDYWGKGTQVTVSS,low polyreactivity
13,QVQLLESCGGLVQAGGSLRLSCAASGIIFARYAMGWYRPAPGKERELVASITTSGGRTYYADSVKGRFTISRDNAKNTVYLQMNSVKPEDTAVYYCAAYYKRDQMYYWGQGTQVTVSS,high polyreactivity
14,QVQLVESGGGLVQAGGSLRLSCAASGRIFGPYTMGWYRQAPGKERELVAAISWSGGSTYYADSVKGRFTISRDNAKNTVYLQMNSLKPEDTAVFYCNADHPFPQYEGGSWGQGTQVTVSS,low polyreactivity
15,QVQLVESGGGLVQAGGSLRLSCAASGLTFKRYAMGWYRQAPGKERELVASITGNGGSTYYADSVKGRFTISRDNAKNTFYLQMNSLKPEDTAVYYCNVGYRGWSVNSWGQGTQVTVSS,high polyreactivity
16,QVQLVESGGGLVQAGGSLRLSCAASGYTIISYGMGWYTQAPGKERELVAAISSGDRTNYADSVKGRFTISRDNAKNTVYLQMNSLKPEDTAVYYCNADRASSSVGYSDEFGHDSWGQGTQVTVSS,low polyreactivity
17,QDQLVESGGGLVQAGGSLRLICAASGSTFEYNAMGWSRHAPGKERELVASSTNYADSVKGRFTISRDNAKNTVYLQMNSLIPEDTAVYYCAREHGVNRNHDYWGQGTQVTVSS,low polyreactivity
18,QVQLVESGGGLVQAGGSLRLSCAASGSIFYLYAMGLYRQAPGKERELVAAITSIGGSTYADSVKGRFTISRDNAKNTVYLQMNSLKPEDTAVYYCNTDEYPLTVQVQYYYWGQGTQVTVSS,low polyreactivity
19,QVQLVESGGGLVQAGGSLRLSCAASGSTFGTYAMGWYRQAPGKERELVAAITSGDNTYYADSVKGRFTISRDNAKNTVYLPMNSLKPEDTAVYYCAKDYNRYYWPWVIRGYDYWGQGTHVTVSS,low polyreactivity
20,QVQLVESGGGLVQAGGSLRLSCAASGRIFDIYAMGWYRPAPRKERELVAAITRRGGTTYADSVKGRFTISRDNAKNTVYLQMNSLKPEVNAVYYCAAGLYFRKWYSWTRYEYWGQGTQVTVSS,high polyreactivity
21,QVQLVESGGGLVQAGGSLRLSCAASRIFAYYTMGWIRQSPGKERELVAAITYSGGSTFYADSVKGRFTISRDNAKNTVYLQMNRLKPEDSSVYYCNAVVRNYGYDYWGQGTQVTVSS,high polyreactivity
